The target of assay [1] is T1, human Ang-2 (human, UniProt O15123).
T1 chain: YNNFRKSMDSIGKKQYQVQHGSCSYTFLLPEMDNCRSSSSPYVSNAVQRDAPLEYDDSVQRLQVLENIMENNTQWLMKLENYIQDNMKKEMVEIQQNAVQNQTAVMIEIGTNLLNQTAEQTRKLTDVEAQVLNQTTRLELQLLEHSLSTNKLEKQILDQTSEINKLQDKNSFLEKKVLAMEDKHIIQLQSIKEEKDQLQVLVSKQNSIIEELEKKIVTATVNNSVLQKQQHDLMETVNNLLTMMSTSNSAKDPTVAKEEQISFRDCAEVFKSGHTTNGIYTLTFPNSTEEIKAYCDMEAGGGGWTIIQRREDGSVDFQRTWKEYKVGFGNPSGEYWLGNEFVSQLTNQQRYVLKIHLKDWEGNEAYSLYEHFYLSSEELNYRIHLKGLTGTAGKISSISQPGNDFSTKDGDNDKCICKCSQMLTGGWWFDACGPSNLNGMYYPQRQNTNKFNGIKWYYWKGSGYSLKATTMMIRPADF
The experiment in a line: competition ELISA vs Tie-2. (In general: An ELISA detects its analyte on a solid surface through an enzyme-linked reagent.)

Assay [2] addresses T2, human Ang-1 (human, UniProt Q15389).
T2 chain: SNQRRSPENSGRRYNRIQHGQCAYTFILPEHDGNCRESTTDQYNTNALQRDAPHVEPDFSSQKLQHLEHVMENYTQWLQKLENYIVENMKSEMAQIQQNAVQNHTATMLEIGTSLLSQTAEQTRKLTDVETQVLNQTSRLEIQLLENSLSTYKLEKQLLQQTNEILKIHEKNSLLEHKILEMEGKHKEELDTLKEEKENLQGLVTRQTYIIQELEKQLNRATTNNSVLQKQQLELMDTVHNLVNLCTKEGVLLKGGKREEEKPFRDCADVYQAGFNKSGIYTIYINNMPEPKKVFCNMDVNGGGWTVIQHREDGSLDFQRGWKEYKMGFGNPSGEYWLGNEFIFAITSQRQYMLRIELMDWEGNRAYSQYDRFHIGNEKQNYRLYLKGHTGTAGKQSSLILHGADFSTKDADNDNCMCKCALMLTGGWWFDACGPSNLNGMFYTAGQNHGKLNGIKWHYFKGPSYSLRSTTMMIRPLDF
Kind of assay: competition ELISA vs Tie-2.

The target in assay [3] is T1, human Ang-2. The experiment in a line: competition ELISA vs Tie-2.
Assay [4] addresses T3, mouse Ang-2 (mouse, UniProt O35608).
T3 chain: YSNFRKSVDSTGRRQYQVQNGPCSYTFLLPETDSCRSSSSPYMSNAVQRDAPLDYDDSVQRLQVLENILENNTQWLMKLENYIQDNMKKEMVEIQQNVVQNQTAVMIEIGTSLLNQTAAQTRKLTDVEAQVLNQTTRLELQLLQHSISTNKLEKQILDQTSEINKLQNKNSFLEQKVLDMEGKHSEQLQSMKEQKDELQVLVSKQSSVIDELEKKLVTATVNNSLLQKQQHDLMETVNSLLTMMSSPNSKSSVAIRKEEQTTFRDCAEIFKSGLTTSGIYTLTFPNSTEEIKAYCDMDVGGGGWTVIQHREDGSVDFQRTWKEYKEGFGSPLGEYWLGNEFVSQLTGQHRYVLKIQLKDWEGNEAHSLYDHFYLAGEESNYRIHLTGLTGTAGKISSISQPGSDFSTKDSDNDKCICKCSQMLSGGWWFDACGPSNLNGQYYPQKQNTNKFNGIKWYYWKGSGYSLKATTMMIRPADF
Kind of assay: competition ELISA vs Tie-2.

Another assay concerns the target T4, rat Ang-2 (rAng-2) (rat, UniProt O35462).
T4 chain: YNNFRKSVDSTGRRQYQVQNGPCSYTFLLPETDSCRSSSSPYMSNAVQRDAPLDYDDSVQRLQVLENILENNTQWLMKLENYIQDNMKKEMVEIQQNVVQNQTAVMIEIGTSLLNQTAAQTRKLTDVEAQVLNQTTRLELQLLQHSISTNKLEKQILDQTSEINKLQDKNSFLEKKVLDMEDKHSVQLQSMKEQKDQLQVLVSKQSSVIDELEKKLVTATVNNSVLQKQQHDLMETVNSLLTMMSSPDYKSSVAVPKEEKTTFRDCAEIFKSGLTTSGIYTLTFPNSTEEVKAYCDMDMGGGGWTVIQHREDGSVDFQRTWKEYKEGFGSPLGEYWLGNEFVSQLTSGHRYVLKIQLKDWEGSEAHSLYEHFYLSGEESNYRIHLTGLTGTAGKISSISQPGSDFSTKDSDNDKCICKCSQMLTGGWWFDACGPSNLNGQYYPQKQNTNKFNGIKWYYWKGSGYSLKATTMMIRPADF
The experiment in a line: competition ELISA vs Tie-2.

Assay [5] concerns the target T2, human Ang-1. The experiment in a line: competition ELISA vs Tie-2.
In assay [6] the target is T3, mouse Ang-2. The experiment in a line: competition ELISA vs Tie-2.
The target of assay [7] is T1, human Ang-2. Kind of assay: competition ELISA vs Tie-2.
Assay [8] addresses T1, human Ang-2. The experiment in a line: competition ELISA vs Tie-2.
In assay [9] the target is T1, human Ang-2. Kind of assay: SPR. In general terms: SPR reads the build-up and loss of mass on a sensor chip optically.

Where two headings read alike, the source gives them in different places. Primed or numbered codes have the meaning given here. Where no end group is shown, it is not given here. [ ]: non-standard residue; d: D form. Fc(3) = Fc: non-antigen-binding fragment of an antibody from proteolytic digestion of a whole antibody (vehicle); Fc(4) = non-antigen-binding fragment of an antibody (from proteolytic digestion of a whole antibody); Fc = immunoglobulin Fc domain fused to the peptide (peptibody); Fc(7) = Fc domain, peptide fused N- or C-terminal to it; Fc″ = Fc domain of the peptibody fusion

M[Fc(7)]GGGGGAQKLEYCDGMEDPFTQGCDNQSLE (not fully specified (bridges); cysteine pairing not given here) [12-9-2 (C)] returned an IC50 in the assay with human Ang-2 [1] of 8.42 nM. In other words, the single-digit nanomolar range.

B1: C17 (N) (peptide)
chain: MGAQQYGCDGFLYGCMINLEGGGGG[Fc(7)]
modifications: not fully specified (bridges); printed as MGAQ-QYGCDGFLYGCMINLE-GGGGG-Fc; cysteine pairing not given here; also: Fc fusion domain at position 26
Consider B1, for which the IC50 was above 1000 nM with human Ang-1 [2], 9 nM with human Ang-2 [3] and 13 nM with mouse Ang-2 [4].

Regarding M[Fc(7)]GGGGGAQLQDYCEGVEDPFTFGCEKQRLE (not fully specified (bridges); cysteine pairing not given here) [12-9-C1 (C)], the IC50 in the assay with human Ang-2 [1] came out at 2.68 nM.

As for MGAQTNFQPLDELDQTLYEQWTLQQRLEGGGGG-Fc [L1-C3 (N)], the IC50 in the assay with human Ang-2 [1] is 0.06 nM. This IC50 is about 45-fold lower than that of the molecule before.

MGAQQEYEPLDELDETLYNQWMFHQRLEGGGGG[Fc(3)] [L1-13 (N)] showed an IC50 in the assay with human Ang-2 [1] of 0.05 nM.

As for M[Fc(7)]GGGGGAQLLDYCEGVQDPFTFGCENLDLE (not fully specified (bridges); cysteine pairing not given here) [12-9-5 (C)], the IC50 with human Ang-2 [1] stood at 1.56 nM.

B2: 2xL1 (N) (designed binder)
chain: MGAQKFNPLDELEETLYEQFTFQQGGGGGGGGKFNPLDELEETLYEQFTFQQLEGGGGG[Fc(7)]
For B2, the IC50 with human Ang-2 [3] stood at 0.65 nM; with mouse Ang-2 [4] it was 0.8 nM.

Take MGAQTKFQPLDELDQTLYEQWTLQQRLEGGGGG-Fc [L1-C2 (N)]: the IC50 in the assay with human Ang-2 [1] was determined as 0.05 nM. In other words, the picomolar range.

In the case of MGAQQNFKPMDELEDTLYKQFLFQHSLEGGGGG[Fc(3)] [L1-11 (N)], the IC50 with human Ang-2 [1] is 0.07 nM. This IC50 and that of the molecule before are within 1.5-fold of each other.

M[Fc(7)]GGGGGAQLQDYCEGVEDPFTFGCENQRLE (not fully specified (bridges); cysteine pairing not given here) [12-9-C2 (C)] displayed an IC50 with human Ang-2 [1] of 1.41 nM.

As for MGAQLNFTPLDELEQTLYEQWTLQQSLEGGGGG[Fc(3)] [L1-2 (N)], in the assay with human Ang-2 [1], the IC50 amounted to 0.04 nM. Against the preceding molecule, the IC50 is about 35-fold lower.

B3: Con1-6 (C) (peptide)
chain: M[Fc]GGGGGAQGQDLRPCEDMFGCGTKDWYGLE
modifications: not fully specified (bridges); cysteine pairing not given here; also: Fc fusion domain at position 2
In the assay with human Ang-2 [1], B3 returned an IC50 of 8.6 nM. Compared with the last molecule, the IC50 is about 220-fold higher.

Regarding M[Fc]GGGGGAQTNIQEECEWDPWTCDHMPGKLE (not fully specified; cysteine pairing not given here) [Con4-40 (C)], the IC50 is 0.35 nM in the assay with rat Ang-2 (rAng-2); above 1000 nM with human Ang-1 [5]; 0.27 nM in the assay with mouse Ang-2 [6]; 0.2 nM in the assay with human Ang-2 [7]; 0.1 nM in the assay with human Ang-2 [8].

B4: TN8-8 (N) (peptide)
chain: MGAQKRPCEEMWGGCNYDLEGGGGGX
modifications: not fully specified (C-terminus, bridges); printed as MGAQ-KRPCEEMWGGCNYDLEGGGGG-Fc; cysteine pairing not given here
B4: the results for the IC50 with human Ang-1 [2], in the assay with human Ang-2 [3] and with mouse Ang-2 [4] were above 1000 nM, 80 nM and around 700 nM, respectively.

B5: Con4 (N) 1K-WT (peptide)
chain: MQEECEWDPWTCEHMGSGSATGGSGSTASSGSGSATHLEGGGGG[Fc]
modifications: not fully specified (bridges); cysteine pairing not given here; also: Fc fusion domain at position 45
In the assay with mouse Ang-2 [4], B5 showed an IC50 of 1.9 nM.

As for MGAQYKFNPMDELEQTLYEEFLFQHALEGGGGG-{Fc″} [L1-22 (N)], in the assay with human Ang-2 [1], the IC50 amounted to 0.09 nM.

B6: Con1 (N) (peptide)
chain: MGAQKRPCEEIFGGCTYQLEGGGGG[Fc]
modifications: not fully specified (bridges); printed as MGAQ-KRPCEEIFGGCTYQLEGGGGG-Fc; cysteine pairing not given here; also: Fc fusion domain at position 26
Turning to B6, the IC50 with human Ang-1 [2] is above 1000 nM; with human Ang-2 [3], 26 nM; in the assay with mouse Ang-2 [4], around 200 nM.

On to M[Fc(4)]GGGGGAQPIRQEECDWDPWTCEHMWEVLE (not fully specified; cysteine pairing not given here) [Con4-44 (C)], for which the IC50 in the assay with rat Ang-2 (rAng-2) is 0.22 nM; with human Ang-1 [5] it was 43 nM; with mouse Ang-2 [6], 0.16 nM; with human Ang-2 [7], 0.08 nM; in the assay with human Ang-2 [8], 0.09 nM. Further, in the assay with human Ang-2 [9], binding was characterised by a dissociation constant (Kd) of 0.21 nM.

B7: TN8-14 (N) (peptide)
chain: MGAQHQICKWDPWTCKHWLEGGGGGX
modifications: not fully specified (C-terminus, bridges); printed as MGAQ-HQICKWDPWTCKHWLEGGGGG-Fc; cysteine pairing not given here
On to B7, for which the IC50 in the assay with human Ang-1 [2] was above 1000 nM; with human Ang-2 [3], 45 nM; with mouse Ang-2 [4], 33 nM.

Consider MGAQQKFQPLDELEQTLYEQFMLQQALEGGGGG[Fc(3)] [L1-10 (N)], for which the IC50 is 0.06 nM with rat Ang-2 (rAng-2); above 1000 nM with human Ang-1 [5]; 0.06 nM in the assay with mouse Ang-2 [6]; 0.06 nM with human Ang-2 [7]; 0.05 nM with human Ang-2 [1]. For the same molecule, the Kd in the assay with human Ang-2 [9] is 0.77 nM.

For orientation: IC50 means the concentration at which inhibition is half-maximal. Low readings indicate greater potency, high ones weaker potency. Usually Kd stands for a measure of binding affinity in units of concentration. A high value points to weaker binding.

The values are drawn from US7205275 (dated 2007).
